This series addresses T1, PUF4 RNA-binding domain (Saccharomyces cerevisiae, UniProt P25339 537-888).
T1 sequence: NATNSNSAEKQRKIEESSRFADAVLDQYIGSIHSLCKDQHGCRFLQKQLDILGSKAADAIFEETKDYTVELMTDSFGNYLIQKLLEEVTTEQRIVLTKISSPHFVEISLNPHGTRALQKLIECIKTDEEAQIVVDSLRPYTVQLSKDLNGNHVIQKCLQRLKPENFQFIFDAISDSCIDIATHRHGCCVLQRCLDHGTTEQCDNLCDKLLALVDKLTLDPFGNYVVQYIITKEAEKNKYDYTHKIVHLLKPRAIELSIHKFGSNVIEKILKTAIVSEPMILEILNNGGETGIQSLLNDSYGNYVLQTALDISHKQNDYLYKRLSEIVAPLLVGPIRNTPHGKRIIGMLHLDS
The series can be described thus: Mg; RNA-MaP; 20 mM Na-HEPES pH 7.4, 30 mM KOAc, 0.75 mM MgCl2, 0.1% Tween-20, 5% glycerol, 0.1 mg/mL BSA, 2 mM DTT; 25 C; 0.0125-409.6 nM protein. Conditions: tags: N-His6-TEV cleaved; C-SNAP kept, Cy3B-labelled; label: tethered on chip by stalled RNA polymerase.

Consider UCUCUUAUACACUAUUAUCUCUCUU (ssRNA) [Id_ii_S1_P4E.4_K4.3_C4.2_[C-2A]_H4.3_A4.1_F4.1_T4.2_[G10T]_[T11C]], for which binding was put at a Kd of 21.8 nM.
As for UCUCUUAAACACUAUUACCUCUCUU (ssRNA) [Id_ii_S1_P4E.4_K4.3_C4.2_[C-2A]_[T-1A]_H4.3_A4.1_F4.1_T4.2_[G10C]_[T11C]], the figure is over 2300 nM.
For UCUCUUCUACACUAUUAUAUCUCUU (ssRNA) [Id_ii_S1_P4E.4_K4.3_C4.2_H4.3_A4.1_F4.1_T4.2_[G10T]_[T11A]], the dissociation constant Kd (as a rule, a measure of binding affinity in units of concentration) was 965 nM. In other words, the sub-micromolar range.
As for UCUCUUUGUACUUUAUCUCUU (ssRNA) [Ib_S1_P4E.1_K4.1_C4.1_H4.1_A4.1_[T5C]_[A6T]_F4.1_T4.1], the figure is 2.73 nM; as for UCUCUUAUACACUAUUAAAUCUCUU (ssRNA) [Id_ii_S1_P4E.4_K4.3_C4.2_[C-2A]_H4.3_A4.1_F4.1_T4.2_[G10A]_[T11A]], 24.2 nM; as for UCUCUUAAACACUAUUAAAUCUCUU (ssRNA) [Id_ii_S1_P4E.4_K4.3_C4.2_[C-2A]_[T-1A]_H4.3_A4.1_F4.1_T4.2_[G10A]_[T11A]], over 2300 nM.
As for UCUCUUAAACACUAUUAUAUCUCUU (ssRNA) [Id_ii_S1_P4E.4_K4.3_C4.2_[C-2A]_[T-1A]_H4.3_A4.1_F4.1_T4.2_[G10T]_[T11A]], the figure is over 2300 nM.
As for UCUCUUUGUACACUAUCUCUU (ssRNA) [Ib_S1_P4E.1_K4.1_C4.1_H4.1_A4.1_[T5C]_[T7C]_F4.1_T4.1], the figure is 0.824 nM; as for UCUCUUAUACACUAUUAUUUCUCUU (ssRNA) [Id_ii_S1_P4E.4_K4.3_C4.2_[C-2A]_H4.3_A4.1_F4.1_T4.2_[G10T]], 35.2 nM.
Consider UCUCUUGUUGUAUUAUUAAUUCUCUU (ssRNA) [Id_ii_S1_P5E.2_K5.1_C5.2_[C-2G]_H5.1_A5.1_F5.1_T5.2_[T11A]_[A12T]], for which the Kd was found to be 9.79 nM. Compared with the last molecule, the Kd is about 3.6-fold lower.
As for UCUCUUGUUGUAUUAUUAAAUCUCUU (ssRNA) [Id_ii_S1_P5E.2_K5.1_C5.2_[C-2G]_H5.1_A5.1_F5.1_T5.2_[T11A]], the figure is 11.7 nM.
As for UCUCUUCAACACUAUUACUUCUCUU (ssRNA) [Id_ii_S1_P4E.4_K4.3_C4.2_[T-1A]_H4.3_A4.1_F4.1_T4.2_[G10C]], the figure is over 2300 nM; as for UCUCUUAUACACUAUUAAUUCUCUU (ssRNA) [Id_ii_S1_P4E.4_K4.3_C4.2_[C-2A]_H4.3_A4.1_F4.1_T4.2_[G10A]], 35.2 nM; as for UCUCUUCAACACUAUUACGUCUCUU (ssRNA) [Id_ii_S1_P4E.4_K4.3_C4.2_[T-1A]_H4.3_A4.1_F4.1_T4.2_[G10C]_[T11G]], over 2300 nM.
The molecule UCUCUUCUACACUAUUAUUUCUCUU (ssRNA) [Id_ii_S1_P4E.4_K4.3_C4.2_H4.3_A4.1_F4.1_T4.2_[G10T]] displayed an equilibrium dissociation constant (Kd) of over 2300 nM.
The value for UCUCUUACACACUAUUAGCUCUCUU (ssRNA) [Id_ii_S1_P4E.4_K4.3_C4.2_[C-2A]_[T-1C]_H4.3_A4.1_F4.1_T4.2_[T11C]] was over 2300 nM; that for UCUCUUAUACACUAUUAACUCUCUU (ssRNA) [Id_ii_S1_P4E.4_K4.3_C4.2_[C-2A]_H4.3_A4.1_F4.1_T4.2_[G10A]_[T11C]] was 37.5 nM; that for UCUCUUUGUAUUAAUAUCUCUU (ssRNA) [Ia_S1_P5E.1_K5.1_C5.1_H5.1_A5.1_F5.1_[T8A]_T5.1] was 9.4 nM.
As for UCUCUUCGACACUAUUACCUCUCUU (ssRNA) [Id_ii_S1_P4E.4_K4.3_C4.2_[T-1G]_H4.3_A4.1_F4.1_T4.2_[G10C]_[T11C]], the figure is over 2300 nM; as for UCUCUUCGACACUAUUACAUCUCUU (ssRNA) [Id_ii_S1_P4E.4_K4.3_C4.2_[T-1G]_H4.3_A4.1_F4.1_T4.2_[G10C]_[T11A]], over 2300 nM.
The value for UCUCUUCCACACUAUUAACUCUCUU (ssRNA) [Id_ii_S1_P4E.4_K4.3_C4.2_[T-1C]_H4.3_A4.1_F4.1_T4.2_[G10A]_[T11C]] was over 2300 nM; that for UCUCUUGCUGUAUUAUUAAUUCUCUU (ssRNA) [Id_ii_S1_P5E.2_K5.1_C5.2_[C-2G]_[T-1C]_H5.1_A5.1_F5.1_T5.2_[T11A]_[A12T]] was 21.6 nM.
The molecule UCUCUUCCACACUAUUACAUCUCUU (ssRNA) [Id_ii_S1_P4E.4_K4.3_C4.2_[T-1C]_H4.3_A4.1_F4.1_T4.2_[G10C]_[T11A]] displayed an equilibrium dissociation constant (Kd) of over 2300 nM.
As for UCUCUUCAACACUAUUAAUUCUCUU (ssRNA) [Id_ii_S1_P4E.4_K4.3_C4.2_[T-1A]_H4.3_A4.1_F4.1_T4.2_[G10A]], the figure is over 2300 nM; as for UCUCUUUGUAACUUAUCUCUU (ssRNA) [Ib_S1_P4E.1_K4.1_C4.1_H4.1_A4.1_[T5A]_[A6C]_F4.1_T4.1], 8.33 nM; as for UCUCUUCAACACUAUUAUAUCUCUU (ssRNA) [Id_ii_S1_P4E.4_K4.3_C4.2_[T-1A]_H4.3_A4.1_F4.1_T4.2_[G10T]_[T11A]], over 2300 nM.
The value for UCUCUUGCUGUAUUAUUAUUUCUCUU (ssRNA) [Id_ii_S1_P5E.2_K5.1_C5.2_[C-2G]_[T-1C]_H5.1_A5.1_F5.1_T5.2_[A12T]] was 10.5 nM.
The value for UCUCUUUGUAAUUUAUCUCUU (ssRNA) [Ic_S1_P4E.1_K4.1_C4.1_H4.1_A4.1_[T5A]_[A6T]_F4.1_T4.1] was 3.77 nM; that for UCUCUUAAACACUAUUAUUUCUCUU (ssRNA) [Id_ii_S1_P4E.4_K4.3_C4.2_[C-2A]_[T-1A]_H4.3_A4.1_F4.1_T4.2_[G10T]] was over 2300 nM.
As for UCUCUUUGUACCUUAUCUCUU (ssRNA) [Ib_S1_P4E.1_K4.1_C4.1_H4.1_A4.1_[T5C]_[A6C]_F4.1_T4.1], the Kd amounted to 3.61 nM.
As to UCUCUUGCUGUAUUAUUAUCUCUCUU (ssRNA) [Id_ii_S1_P5E.2_K5.1_C5.2_[C-2G]_[T-1C]_H5.1_A5.1_F5.1_T5.2_[A12C]], binding was characterised by a dissociation constant (Kd) of 11.7 nM.
UCUCUUAUACACUAUUACCUCUCUU (ssRNA) [Id_ii_S1_P4E.4_K4.3_C4.2_[C-2A]_H4.3_A4.1_F4.1_T4.2_[G10C]_[T11C]] showed an equilibrium dissociation constant (Kd) of 26.4 nM.
In turn, UCUCUUAAACACUAUUAGCUCUCUU (ssRNA) [Id_ii_S1_P4E.4_K4.3_C4.2_[C-2A]_[T-1A]_H4.3_A4.1_F4.1_T4.2_[T11C]] yielded a Kd of over 2300 nM.
As for UCUCUUCGACACUAUUAUCUCUCUU (ssRNA) [Id_ii_S1_P4E.4_K4.3_C4.2_[T-1G]_H4.3_A4.1_F4.1_T4.2_[G10T]_[T11C]], the figure is over 2300 nM.
As for UCUCUUCUACACUAUUAUCUCUCUU (ssRNA) [Id_ii_S1_P4E.4_K4.3_C4.2_H4.3_A4.1_F4.1_T4.2_[G10T]_[T11C]], the Kd is 1700 nM.
The value for UCUCUUCGACACUAUUACUUCUCUU (ssRNA) [Id_ii_S1_P4E.4_K4.3_C4.2_[T-1G]_H4.3_A4.1_F4.1_T4.2_[G10C]] was over 2300 nM; that for UCUCUUCCACACUAUUAGCUCUCUU (ssRNA) [Id_ii_S1_P4E.4_K4.3_C4.2_[T-1C]_H4.3_A4.1_F4.1_T4.2_[T11C]] was over 2300 nM.
In the case of UCUCUUAUACACUAUUACUUCUCUU (ssRNA) [Id_ii_S1_P4E.4_K4.3_C4.2_[C-2A]_H4.3_A4.1_F4.1_T4.2_[G10C]], the dissociation constant (Kd) was 31.1 nM.
The value for UCUCUUCCACACUAUUAUAUCUCUU (ssRNA) [Id_ii_S1_P4E.4_K4.3_C4.2_[T-1C]_H4.3_A4.1_F4.1_T4.2_[G10T]_[T11A]] was over 2300 nM; that for UCUCUUAUACACUAUUACGUCUCUU (ssRNA) [Id_ii_S1_P4E.4_K4.3_C4.2_[C-2A]_H4.3_A4.1_F4.1_T4.2_[G10C]_[T11G]] was 32.1 nM; that for UCUCUUCCACACUAUUAAAUCUCUU (ssRNA) [Id_ii_S1_P4E.4_K4.3_C4.2_[T-1C]_H4.3_A4.1_F4.1_T4.2_[G10A]_[T11A]] was over 2300 nM.
The value for UCUCUUCCACACUAUUACUUCUCUU (ssRNA) [Id_ii_S1_P4E.4_K4.3_C4.2_[T-1C]_H4.3_A4.1_F4.1_T4.2_[G10C]] was over 2300 nM; that for UCUCUUGUUGUAUUAUUAUCUCUCUU (ssRNA) [Id_ii_S1_P5E.2_K5.1_C5.2_[C-2G]_H5.1_A5.1_F5.1_T5.2_[A12C]] was 6.74 nM; that for UCUCUUCCACACUAUUAGAUCUCUU (ssRNA) [Id_ii_S1_P4E.4_K4.3_C4.2_[T-1C]_H4.3_A4.1_F4.1_T4.2_[T11A]] was over 2300 nM.
As for UCUCUUGUUGUAUUAUUAUUUCUCUU (ssRNA) [Id_ii_S1_P5E.2_K5.1_C5.2_[C-2G]_H5.1_A5.1_F5.1_T5.2_[A12T]], the figure is 6.28 nM; as for UCUCUUAUACACUAUUAGUUCUCUU (ssRNA) [Id_ii_S1_P4E.4_K4.3_C4.2_[C-2A]_H4.3_A4.1_F4.1_T4.2], 42.8 nM; as for UCUCUUCCACACUAUUAGUUCUCUU (ssRNA) [Id_ii_S1_P4E.4_K4.3_C4.2_[T-1C]_H4.3_A4.1_F4.1_T4.2], over 2300 nM.
UCUCUUCAACACUAUUAGUUCUCUU (ssRNA) [Id_ii_S1_P4E.4_K4.3_C4.2_[T-1A]_H4.3_A4.1_F4.1_T4.2] displayed a Kd of over 2300 nM.
As for UCUCUUAUACACUAUUAGCUCUCUU (ssRNA) [Id_ii_S1_P4E.4_K4.3_C4.2_[C-2A]_H4.3_A4.1_F4.1_T4.2_[T11C]], the figure is 49.5 nM; as for UCUCUUCCACACUAUUACCUCUCUU (ssRNA) [Id_ii_S1_P4E.4_K4.3_C4.2_[T-1C]_H4.3_A4.1_F4.1_T4.2_[G10C]_[T11C]], over 2300 nM.
As for UCUCUUCCACACUAUUACGUCUCUU (ssRNA) [Id_ii_S1_P4E.4_K4.3_C4.2_[T-1C]_H4.3_A4.1_F4.1_T4.2_[G10C]_[T11G]], the figure is over 2300 nM.
Turning to UCUCUUCGACACUAUUAACUCUCUU (ssRNA) [Id_ii_S1_P4E.4_K4.3_C4.2_[T-1G]_H4.3_A4.1_F4.1_T4.2_[G10A]_[T11C]], the Kd is over 2300 nM.
The value for UCUCUUGCUGUAUUAUUAACUCUCUU (ssRNA) [Id_ii_S1_P5E.2_K5.1_C5.2_[C-2G]_[T-1C]_H5.1_A5.1_F5.1_T5.2_[T11A]_[A12C]] was 15.2 nM; that for UCUCUUAUACACUAUUAUAUCUCUU (ssRNA) [Id_ii_S1_P4E.4_K4.3_C4.2_[C-2A]_H4.3_A4.1_F4.1_T4.2_[G10T]_[T11A]] was 31.1 nM; that for UCUCUUAUACACUAUUACAUCUCUU (ssRNA) [Id_ii_S1_P4E.4_K4.3_C4.2_[C-2A]_H4.3_A4.1_F4.1_T4.2_[G10C]_[T11A]] was 29.6 nM.
UCUCUUAAACACUAUUAUCUCUCUU (ssRNA) [Id_ii_S1_P4E.4_K4.3_C4.2_[C-2A]_[T-1A]_H4.3_A4.1_F4.1_T4.2_[G10T]_[T11C]] showed a Kd of over 2300 nM.
UCUCUUUGUGUAUUAUUAGUUCUCUU (ssRNA) [Id_ii_S1_P5E.2_K5.1_C5.2_[C-2T]_[T-1G]_H5.1_A5.1_F5.1_T5.2_[T11G]_[A12T]] showed a dissociation constant (Kd) of 2.43 nM.

The values above are taken from paper PMC9352680, “A comprehensive thermodynamic model for RNA binding by the Saccharomyces cerevisiae Pumilio protein PUF4”.
